Measured values reported in patent US20070224212A1.

How the values were obtained:
[1] = biological target: HIV-1 gp41 (strain 89.6) (HIV-1 strain 89.6); test: cell-based or functional assay
[2] = biological target: HIV-1 gp41 (strain BaL) (HIV-1 strain BaL); test: cell-based or functional assay
[3] = biological target: HIV-1 gp41 (strain HXB2) (HIV-1 strain HXB2) (UniProt P04578); test: cell-based or functional assay
[4] = biological target: HIV-1 gp41 (strain MN-1) (HIV-1 strain MN-1) (UniProt P05877); test: cell-based or functional assay
[5] = biological target: HIV-1 gp41 (strain NL4-3) (HIV-1 strain NL4-3); test: cell-based or functional assay
Biotin-IZN36 = test: BIAcore SPR; D5 IgG immobilized on CM5 chip, biotin-IZN36 in solution
(Biotin-CCIZN23)3 [6] = test: BIAcore SPR; D5 IgG immobilized on CM5 chip, (biotin-CCIZN23)3 in solution
(Biotin-CCIZN23)3 [7] = test: BIAcore SPR; (biotin-CCIZN23)3 immobilized on SA chip, D5-scFv in solution
D5 IgG = test: AlphaScreen competition: peptide titrated against the binding of D5-IgG to biotinylated-IQN17

Row | Substance | IC50, single-cycle HIV infectivity assay [1] [nM] | IC50, single-cycle HIV infectivity assay [2] [nM] | IC50, single-cycle HIV infectivity assay [3] [nM] | IC50 (read off the curve) (D5 IgG) [nM] | further results
1 | D5 IgG (antibody) | 1750 | 93 | 310 | – | IC50, HIV single cycle infectivity assay, HIV-HXB2 [3]: 1350 nM; IC50, HIV-1 single-cycle infectivity assay, strain HXB2 (FIG. 17A) [3]: 144 µg/mL; IC50, single-cycle HIV infectivity assay [4]: 393 nM; IC50, single-cycle HIV infectivity assay [5]: 226 nM; Kd (Biotin-IZN36): 0.17 nM; Kd ((Biotin-CCIZN23)3 [6]): 0.22 nM
2 | D5-scFv | – | – | – | – | Kd ((Biotin-CCIZN23)3 [7]): 0.2 nM
3 | IZN17 L565M (peptide) | – | – | – | 10 | –
4 | IZN17 Q567R (peptide) | – | – | – | 10 | –
5 | T-20 (peptide) | 29 | 2.4 | 5.3 | – | –
